{"source": "paper PMC3899335", "about": "“ParABS System in Chromosome Partitioning in the Bacterium Myxococcus xanthus”", "binders": {"B1": {"name": "parS 50 bp consensus (dsDNA)", "DNA 1": "ACTCACTCATGGCCTCCGTGTTCCACGTGGAACGAAGGATGACTCGAGCA", "DNA 2": "TGCTCGAGTCATCCTTCGTTCCACGTGGAACACGGAGGCCATGAGTGAGT"}}, "target": "T1, ParB (Myxococcus xanthus DK1050, UniProt Q1CVJ4 1-296)", "T1 sequence": "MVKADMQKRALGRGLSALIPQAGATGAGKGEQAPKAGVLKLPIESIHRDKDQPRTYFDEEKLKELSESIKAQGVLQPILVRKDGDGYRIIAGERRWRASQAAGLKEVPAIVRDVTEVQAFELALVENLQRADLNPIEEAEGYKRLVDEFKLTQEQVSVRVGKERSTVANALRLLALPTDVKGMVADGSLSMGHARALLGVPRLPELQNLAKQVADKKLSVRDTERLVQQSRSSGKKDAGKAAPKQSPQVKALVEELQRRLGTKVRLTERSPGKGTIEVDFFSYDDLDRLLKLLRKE", "assay": "EMSA (polyacrylamide); single retarded band up to highest ParB; 40 mM Na-phosphate pH 8, 20 mM NaCl, 7% glycerol, 20 ug/ml BSA, 100 ug/ml sheared salmon sperm DNA, 30 C (30 min agarose, 1 h polyacrylamide); gels run at 4 C", "details": "protein: recombinant; tags: intein-chitin tag (pTYB12) removed by on-column DTT cleavage; chain copies: 2; label: 32P 5' end; blunt", "data": [{"binder": "B1", "values": [{"measurement": "binding result", "value": "binds"}]}]}
